Each block holds one molecule with its values, some of them ahead of it. Where no end group is shown, it is not given here. FAM = 5(6)-carboxyfluorescein
How the values were obtained:
[1] = biological target: FAM-CEP192 501–533 (human) (UniProt Q8TEP8); assay: fluorescence polarisation; direct fluorescence anisotropy: Aurora-A diluted across the plate, 50 nM tracer FAM-CEP192 501–533; 25 mM HEPES pH 7.5, 150 mM NaCl, 2 mM DTT, 5 mM MgCl2, 0.01% Tween 20; 1 h at room temperature
[2] = biological target: T1, human CEP192 468–533 (human, UniProt Q8TEP8 468-533); assay: ITC; 250 μM Aurora-A in the syringe, 25 μM CEP192 construct in the cell; 25 °C; 20 mM tris pH 7.5, 200 mM NaCl, 10% glycerol, 5 mM MgCl2
T1 construct: also called CEP192_(506-527_F); source: E. coli B834 RIL, purified (HisTrap, TEV cleavage, SEC); for crystallisation co-expressed with Aurora-A^M7KD and co-purified; not shown: His6, N-terminal, cleaved; SUMO, N-terminal, cleaved
T1 sequence (looked up): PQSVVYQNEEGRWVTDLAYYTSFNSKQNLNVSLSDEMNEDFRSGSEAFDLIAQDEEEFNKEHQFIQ

[3] = tested on: Aurora-A; conditions: cited from earlier work; for effect on Aurora-A activity: ADP-Glo based assay, ref Park et al. 2023 Figure 3 F-H
Source text: page 22: have elected to test PLK1 localization. In the absence of a direct test, they could nevertheless refer to the observations of Joukov et al. We find that PLK1 localisation is normal in ∆11 cells and have include d this new data (Fig. EV8) -Figure 5A-B: The scheme could be made clearer. Why is CEP192 depicted in blue and grey in panel A, green and grey in panel B (grey in scheme of excision sites). Why not use color consistently? […] We have ch ...

[4] = biological target: T2, unphosphorylated Aurora-A CAKD (Homo sapiens, UniProt O14965, C290A/C393A); assay: Fluorescence anisotropy competition with FAM-CEP192 501-533, unphosphorylated Aurora-A; format: binding; conditions: competition with 100 nM FAM-CEP192 501-533, 10 μM unphosphorylated Aurora-A CAKD, n = 3
T2 construct: 10 μM Aurora-A kinase domain (phosphorylated or unphosphorylated C290A C393A 122–403); His (N, cleaved yes); made in house; host or cells: E. coli RIL, co-expressed with lambda phosphatase
T2 sequence (O14965 122-403 C290A/C393A): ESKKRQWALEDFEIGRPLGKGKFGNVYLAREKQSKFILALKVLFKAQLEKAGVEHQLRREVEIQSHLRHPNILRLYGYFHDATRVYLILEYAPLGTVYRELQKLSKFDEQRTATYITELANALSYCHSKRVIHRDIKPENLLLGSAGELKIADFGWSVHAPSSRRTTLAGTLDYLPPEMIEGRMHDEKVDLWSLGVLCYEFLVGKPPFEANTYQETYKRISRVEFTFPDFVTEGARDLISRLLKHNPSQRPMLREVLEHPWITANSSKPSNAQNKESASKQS
Method: (§1) Assays were performed in 25 mM HEPES pH 7.5, 150 mM NaCl, 2 mM DTT, 5 mM MgCl2, 0.01% Tween 20. For CEP192 and TPX2 competition assays 10 μM Aurora-A kinase domain (phosphorylated or unphosphorylated C290A C393A 122–403) was preincubated on ice with 100 nM FAM-TPX2 7-43 or 100 nM FAM-CEP192 501–533. For TACC3 competition, due to weaker binding, 25 μM Aurora-A kinase domain (phosphorylated or unphosphorylated C290A C393A 122–403) was preincubated with 100 nM FAM-TACC3 522-536. Serial dilutions of competitor (CEP192) were performed in triplicate into a low volume 384-well black plate, before the premixed Aurora-A and tracer were added. A control row included no tracer. Plates were left incubating for 1 h at room temperature before the fluorescence anisotropy was measured using a HIDEX plate reader, with excitation at 485 nm and emission at 535 nm. For direct binding experiments, the assay was performed as above, but the Aurora-A (122–403 C290A C393A or point mutants) was diluted across the plate from high to low concentration, before the addition of 50 nM tracer (FAM-CEP192 501–533) to three replicate rows. Buffer only was added to the control row.
(§2) Fluorescence anisotropy data were processed using Microsoft Excel to calculate intensity and anisotropy using the equation listed in (Yeo et al, [2013]). The IC50 and Kd values were calculated using Origin (OriginLab) where the data fitted to a sigmoid and are summarised in Appendix Table S3.

[5] = biological target: T3, phosphorylated Aurora-A CAKD (Homo sapiens, UniProt O14965, C290A/C393A); assay: ADP-Glo kinase assay, kemptide substrate; format: biochemical
T3 construct: 10 nM Aurora-A 122–403 C290A C393A phosphorylated protein; His (N, cleaved yes); made in house; host or cells: E. coli B834 (no lambda phosphatase)
T3 sequence (O14965 122-403 C290A/C393A): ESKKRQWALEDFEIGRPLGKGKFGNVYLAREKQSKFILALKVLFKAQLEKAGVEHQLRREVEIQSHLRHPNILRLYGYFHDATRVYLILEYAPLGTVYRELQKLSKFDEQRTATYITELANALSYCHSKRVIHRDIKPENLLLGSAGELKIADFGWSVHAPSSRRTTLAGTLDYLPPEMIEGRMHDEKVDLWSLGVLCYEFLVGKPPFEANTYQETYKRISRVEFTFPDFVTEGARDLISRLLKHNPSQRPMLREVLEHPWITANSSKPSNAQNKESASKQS
Method: Reactions were initiated by the addition of 10 μM ATP and 100 μM kemptide as substrate (Cambridge Bioscience Ltd). The reactions were incubated at room temperature for 60 min before 5 μl was transferred into 5 ul of ADP-Glo Reagent (Promega) in a 384-well low volume low binding plate (Greiner Bio-one). After a further 40 min at room temperature, 10 μl of kinase detection reagent was added to each well, and the reaction was allowed to incubate for an additional 30 min. Luminescence was measured on a HIDEX Sense plate reader (HIDEX) using a 1 s integration time. Control data was subtracted from the luminescence and three repeats were averaged before being fitted to a sigmoidal plot using Origin (OriginLab), where IC50 and EC50 values were calculated.

[6] = biological target: T3, phosphorylated Aurora-A CAKD; assay: Fluorescence anisotropy competition with FAM-CEP192 501-533, phosphorylated Aurora-A; format: binding; conditions: competition with 100 nM FAM-CEP192 501-533, 10 μM phosphorylated Aurora-A CAKD, n = 3
Method: as §1, §2

[7] = biological target: T4, Aurora-A^CAKD (Aurora-A kinase domain, aa 122–403 C290A, C393A), unphosphorylated (human, UniProt O14965 122-403, C290A | C393A); assay: fluorescence polarisation; competition: 10 μM unphosphorylated Aurora-A^CAKD preincubated with 100 nM FAM-TPX2 7-43, CEP192 competitor serially diluted; 25 mM HEPES pH 7.5, 150 mM NaCl, 2 mM DTT, 5 mM MgCl2, 0.01% Tween 20; conditions: both partners purified
T4 construct: Aurora-A kinase domain, human, residues 122-403, variant lacking surface cysteines; also called Aurora-A 122–403 C290A C393A; unphosphorylated Aurora-A^CAKD; source: E. coli RIL, co-expressed with lambda phosphatase, purified (HisTrap, TEV cleavage, SEC); not shown: His6, N-terminal, cleaved
T4 sequence (looked up): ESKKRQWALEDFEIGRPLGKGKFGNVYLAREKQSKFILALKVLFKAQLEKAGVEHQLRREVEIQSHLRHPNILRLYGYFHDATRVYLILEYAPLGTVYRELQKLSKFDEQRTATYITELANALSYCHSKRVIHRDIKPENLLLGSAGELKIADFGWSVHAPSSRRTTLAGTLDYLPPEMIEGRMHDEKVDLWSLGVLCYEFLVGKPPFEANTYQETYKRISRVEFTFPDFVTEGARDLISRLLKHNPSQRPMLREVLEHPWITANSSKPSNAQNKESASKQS

[8] = biological target: T4, Aurora-A^CAKD (Aurora-A kinase domain, …); assay: fluorescence polarisation; competition: 25 μM Aurora-A kinase domain preincubated with 100 nM FAM-TACC3 522-536, CEP192 competitor serially diluted; 25 mM HEPES pH 7.5, 150 mM NaCl, 2 mM DTT, 5 mM MgCl2, 0.01% Tween 20; conditions: both partners purified

Molecule: Aurora-A^KD F165D (Aurora-A 122–403 F165D) (from UniProt O14965 122-403) (domain or fragment)
Kd [1]: > 5 µM

Molecule: Aurora-A^KD F165D/R205A (Aurora-A 122–403 R205A F165D) (from UniProt O14965 122-403) (domain or fragment)
Kd [2]: 26 µM | stoichiometry N [2]: 0.87

Molecule: CEP192 506-536: short CEP192 fragment used by Park et al 2023 (EDFRSGSEAFDLIAQDEEEFNKEHQFIQEEN; UniProt Q8TEP8 506-536, looked up, fragment)
effect on Aurora-A activity [3]: no effect seen

B3: CEP192 468-533 F490D/F508D/I518D: CEP192 468-533 variant replacing hydrophobic residues recognising two regions of N-lobe (protein)
chain: PQSVVYQNEEGRWVTDLAYYTSDNSKQNLNVSLSDEMNEDDRSGSEAFDLDAQDEEEFNKEHQFIQ
modifications: left off: His6, N-terminal, cleaved | SUMO, N-terminal, cleaved
notes: CEP192 468-533 variant replacing hydrophobic residues recognising two regions of N-lobe
IC50 [4]: > 10 µM | IC50 [6]: > 10 µM

B4: CEP192 521-757: recombinant GST-tagged CEP192 521-757 with the Xenopus CEP192 binding site (Joukov et al 2010) (protein, UniProt Q8TEP8 521-757, looked up, fragment)
chain: DEEEFNKEHQFIQEENIDAHNTSVALGDTSWGATINYSLLRKSRSTSDLDKDDASYLRLSLGEFFAQRSEALGCLGGGNNVKRPSFGYFIRSPEKREPIALIRKSDVSRGNLEKEMAHLNHDLYSGDLNEQSQAQLSEGSITLQVEAVESTSQVDENDVTLTADKGKTEDTFFMSNKPQRYKDKLPDSGDSMLRISTIASAIAEASVNTDPSQLAAMIKALSNKTRDKTFQEDEKQK
modifications: GST tag
effect on Maskin/TACC3 phosphorylation by Aurora-A ([3]; Xenopus egg extract, ref Joukov et al. (2010) Figure 4C): lower levels of Maskin/TACC3 phosphorylation | effect on Aurora-A autophosphorylation at Thr288 and Histone H3 phosphorylation ([3]; recombinant GST-tagged CEP192, western blot, ref Joukov et al. (2010) Figure 3G): prevents autophosphorylation of Aurora-A at Thr288

B5: CEP192 1-995: longer CEP192 fragment used by Park et al 2023 (protein, UniProt Q8TEP8 1-995, looked up, fragment)
chain: MEDFRGIAEESFPSFLTNSLFGNSGILENVTLSSNLGLPVAVSTLARDRSSTDNRYPDIQASYLVEGRFSVPSGSSPGSQSDAEPRERLQLSFQDDDSISRKKSYVESQRLSNALSKQSALQMETAGPEEEPAGATESLQGQDLFNRASPLEQAQDSPIDFHLQSWMNNKEPKIVVLDAGKHFEDKTLKSDLSHTSLLENEKLILPTSLEDSSDDDIDDEMFYDDHLEAYFEQLAIPGMIYEDLEGPEPPEKGFKLPTNGLRQANENGSLNCKFQSENNSSLISLDSHSSETTHKESEESQVICLPGTSNSIGTGDSRRYTDGMLPFSSGTWGTEKEIENLKGIVPDLNSECASKDVLVKTLRAIDVKLNSDNFHDANANRGGFDLTDPVKQGAECPHQNKTVLHMDGCLDTETPTVSIQENVDVASLKPISDSGINFTDAIWSPTCERRTCECHESIEKNKDKTDLPQSVVYQNEEGRWVTDLAYYTSFNSKQNLNVSLSDEMNEDFRSGSEAFDLIAQDEEEFNKEHQFIQEENIDAHNTSVALGDTSWGATINYSLLRKSRSTSDLDKDDASYLRLSLGEFFAQRSEALGCLGGGNNVKRPSFGYFIRSPEKREPIALIRKSDVSRGNLEKEMAHLNHDLYSGDLNEQSQAQLSEGSITLQVEAVESTSQVDENDVTLTADKGKTEDTFFMSNKPQRYKDKLPDSGDSMLRISTIASAIAEASVNTDPSQLAAMIKALSNKTRDKTFQEDEKQKDYSHVRHFLPNDLEKSNGSNALDMEKYLKKTEVSRYESALENFSRASMSDTWDLSLPKEQTTQDIHPVDLSATSVSVRAPEENTAAIVYVENGESENQESFRTINSSNSVTNRENNSAVVDVKTCSIDNKLQDVGNDEKATSISTPSDSYSSVRNPRITSLCLLKDCEEIRDNRENQRQNECVSEISNSEKHVTFENHRIVSPKNSDLKNTSPEHGGRGSEDEQESFRPSTSPLSHSS
effect on Aurora-A activity [3]: no effect seen

Further lines, with some results ahead:

IC50 [4]: 6.9 µM | IC50 ([5]; 10 nM phosphorylated Aurora-A CAKD, 10 μM ATP, 100 μM kemptide, 60 min, n = 3): > 1 µM | IC50 [6]: 5.39 µM
B1: CEP192 468-533 Y487A/F490A: CEP192 468-533 mutant, two F-pocket residues replaced with alanine (protein)
chain: PQSVVYQNEEGRWVTDLAYATSANSKQNLNVSLSDEMNEDFRSGSEAFDLIAQDEEEFNKEHQFIQ
modifications: left off: His6, N-terminal, cleaved | SUMO, N-terminal, cleaved
notes: CEP192 468-533 mutant, two F-pocket residues replaced with alanine
effect on Aurora-A kinase activity ([5]; ADP-Glo, phosphorylated Aurora-A CAKD, kemptide, in words): less potent and less complete

IC50 [4]: > 10 µM | IC50 [6]: > 10 µM
B2: CEP192 468-533 F508D/I518D/F525D: CEP192 468-533 triple mutant (protein, UniProt Q8TEP8 468-533, looked up, variant F508D I518D F525D)
chain: PQSVVYQNEEGRWVTDLAYYTSFNSKQNLNVSLSDEMNEDDRSGSEAFDLDAQDEEEDNKEHQFIQ

binding result [7]: binds
B6: FAM-TPX2 7-43 (peptide, UniProt Q9ULW0 7-43, looked up)
peptide: {FAM}-SYSYDAPSDFINFSSLDDEGDTQNIDSWFEEKANLEN
notes: TPX2, residues 7-43; Made on Rink amide resin and labelled on resin after synthesis, so N-terminal label and C-terminal amide are likely; source: synthetic peptide

binding result [8]: binds
B7: FAM-TACC3 522-536 (peptide, UniProt Q9Y6A5 522-536, looked up)
peptide: {FAM}-EESFRDPAEVLGTGA
notes: Made on Rink amide resin and labelled on resin after synthesis, so N-terminal label and C-terminal amide are likely; source: synthetic peptide

IC50 [8]: 29 µM
B8: CEP192 501–533 peptide (unlabelled) (peptide, UniProt Q8TEP8 501-533, looked up)
peptide: SDEMNEDFRSGSEAFDLIAQDEEEFNKEHQFIQ
notes: Probably synthesised as the labelled peptides (Rink amide resin); source: peptide

Reference: article PMC11574021, “CEP192 localises mitotic Aurora-A activity by priming its interaction with TPX2” (The EMBO Journal, 2024)
